The record followed here is article PMC10786891, “Massively parallel profiling of RNA-targeting CRISPR-Cas13d”.

Residue numbers refer to the chain shown, from its start. Numbers in names are those of the source.

The labels stand for the following.
T1: EsCas13d, nuclease-dead (Eubacterium siraeum, UniProt B0MS50, R295A;H300A;R849A;H854A)
T1 sequence: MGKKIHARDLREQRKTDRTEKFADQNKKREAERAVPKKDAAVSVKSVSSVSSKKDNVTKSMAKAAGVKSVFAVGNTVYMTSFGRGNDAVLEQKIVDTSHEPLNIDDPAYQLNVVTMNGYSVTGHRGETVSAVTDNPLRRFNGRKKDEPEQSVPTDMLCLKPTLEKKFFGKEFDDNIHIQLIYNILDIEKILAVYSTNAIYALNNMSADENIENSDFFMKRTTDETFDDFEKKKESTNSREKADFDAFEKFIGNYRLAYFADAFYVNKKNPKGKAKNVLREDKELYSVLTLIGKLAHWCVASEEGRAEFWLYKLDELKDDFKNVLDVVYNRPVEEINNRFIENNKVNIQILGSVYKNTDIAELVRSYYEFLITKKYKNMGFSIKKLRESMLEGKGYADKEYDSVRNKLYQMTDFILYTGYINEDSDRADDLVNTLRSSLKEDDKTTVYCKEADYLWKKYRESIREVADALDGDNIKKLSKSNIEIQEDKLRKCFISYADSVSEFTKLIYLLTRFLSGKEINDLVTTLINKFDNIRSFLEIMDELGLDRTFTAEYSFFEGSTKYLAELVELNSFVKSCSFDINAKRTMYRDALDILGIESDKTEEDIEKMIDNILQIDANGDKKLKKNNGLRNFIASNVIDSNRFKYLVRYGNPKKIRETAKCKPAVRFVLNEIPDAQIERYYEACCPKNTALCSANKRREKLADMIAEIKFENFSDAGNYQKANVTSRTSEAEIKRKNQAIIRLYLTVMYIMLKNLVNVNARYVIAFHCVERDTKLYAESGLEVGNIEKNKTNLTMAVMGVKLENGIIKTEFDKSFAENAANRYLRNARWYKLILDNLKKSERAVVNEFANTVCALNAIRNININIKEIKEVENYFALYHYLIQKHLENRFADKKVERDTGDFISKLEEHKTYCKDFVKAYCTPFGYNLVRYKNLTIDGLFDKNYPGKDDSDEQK

B1: target 1 insG 3' of 8,insG 3' of 8 (mixed)
RNA 1: CACCCGUGCAAAAAUGCAGGGGUCUAAAACUGAGCGGAUAACCUCUCUAUGG
RNA 2: GGGAAUGGAUCCACAUCUACGAAUUCGUACCAUAGAGAGGUUAUGGCCGCUCACCGAGAUCGGAAGAGCACACGU
B2: target 1 C4A,C6U (mixed)
RNA 1: B1 RNA 1
RNA 2: GGGAAUGGAUCCACAUCUACGAAUUCGUACCAUAGAGAGGUUAUCUGAUCACCGAGAUCGGAAGAGCACACGU
B3: target 1 insA 3' of 15,insG 3' of 9 (mixed)
RNA 1: B1 RNA 1
RNA 2: B1 RNA 2 with G39A, U41G, A43U, U44A, G46U
B4: target 1 insU 3' of 12,insG 3' of 8 (mixed)
RNA 1: B1 RNA 1
RNA 2: B1 RNA 2 with A43U, U44A, G45U
B5: target 1 G12A,G15C (mixed)
RNA 1: B1 RNA 1
RNA 2: B2 RNA 2 with G37C, G40A, U46C, A48C
B6: target 1 insA 3' of 7,insG 3' of 7 (mixed)
RNA 1: B1 RNA 1
RNA 2: B1 RNA 2 with G45C, G46A, C47G
B7: target 1 insU 3' of 20,insG 3' of 7 (mixed)
RNA 1: B1 RNA 1
RNA 2: GGGAAUGGAUCCACAUCUACGAAUUCGUACCAUUAGAGAGGUUAUCGCGCUCACCGAGAUCGGAAGAGCACACGU
B8: target 1 insG 3' of 7,insA 3' of 6 (mixed)
RNA 1: B1 RNA 1
RNA 2: B1 RNA 2 with G45C, C48A
B9: target 1 insG 3' of 21,insU 3' of 2 (mixed)
RNA 1: B1 RNA 1
RNA 2: B7 RNA 2 with A32G, U33A, G47C, C48G, G49C, C50U, U51C, C52U
B10: target 1 insG 3' of 18,insU 3' of 9 (mixed)
RNA 1: B1 RNA 1
RNA 2: B7 RNA 2 with U34A, A35G, C46U, G47C
B11: target 1 insA 3' of 10,insG 3' of 1 (mixed)
RNA 1: B1 RNA 1
RNA 2: B1 RNA 2 with U44A, G45U, G46C, C48G, G49C, C50U, U51C, C52A, A53G
B12: target 1 insG 3' of 16 (mixed)
RNA 1: B1 RNA 1
RNA 2: GGGAAUGGAUCCACAUCUACGAAUUCGUACCAUAGAGGAGGUUAUCCGCUCACCGAGAUCGGAAGAGCACACGU
B13: target 1 C6A,U19C (mixed)
RNA 1: B1 RNA 1
RNA 2: B2 RNA 2 with U33C, U46A, A48C
B14: target 1 complement block 2-9 (mixed)
RNA 1: B1 RNA 1
RNA 2: B2 RNA 2 with A43U, U44A, C45G, U46G, G47C, A48G, U49A, C50G
B15: target 1 insU 3' of 21,insG 3' of 21 (mixed)
RNA 1: B1 RNA 1
RNA 2: B1 RNA 2 with A32U, U33G, G35U, G40A, U41G, U42G, A43U, G45A, G46U
B16: target 1 insC 3' of 16,insC 3' of 13 (mixed)
RNA 1: B1 RNA 1
RNA 2: B1 RNA 2 with G37C, A38G, G39A, U41C, U42G, A43U, G45A, G46U
B17: target 1 C7G,U19A (mixed)
RNA 1: B1 RNA 1
RNA 2: B2 RNA 2 with U33A, C45G, U46C, A48C
B18: target 1 insA 3' of 12,insC 3' of 9 (mixed)
RNA 1: B1 RNA 1
RNA 2: B1 RNA 2 with U41A, A43U, U44A, G45C, G46U
B19: target 1 insA 3' of 21,insA 3' of 15 (mixed)
RNA 1: B1 RNA 1
RNA 2: B7 RNA 2 with U33A, G40A, U42G, A44U, U45A, C46U, G47C
B20: target 1 insU 3' of 15,insG 3' of 4 (mixed)
RNA 1: B1 RNA 1
RNA 2: B7 RNA 2 with U34A, A35G, G36A, A37G, G38U, G47C, C48G, G49C, C50G
B21: target 1 insC 3' of 15,insA 3' of 4 (mixed)
RNA 1: B1 RNA 1
RNA 2: B7 RNA 2 with U34A, A35G, G36A, A37G, G38C, G47C, C48G, G49C, C50A
B22: target 1 insC 3' of 22,insG 3' of 10 (mixed)
RNA 1: B1 RNA 1
RNA 2: B7 RNA 2 with A32C, U33A, A44G, U45A, C46U, G47C
B23: target 1 insC 3' of 20,insC 3' of 14 (mixed)
RNA 1: B1 RNA 1
RNA 2: B7 RNA 2 with U33C, G40C, U42G, A44U, U45A, C46U, G47C
B24: target 1 insA 3' of 10,insU 3' of 1 (mixed)
RNA 1: B1 RNA 1
RNA 2: B1 RNA 2 with U44A, G45U, G46C, C48G, G49C, C50U, U51C, C52A, A53U
B25: target 1 C2U,A16C (mixed)
RNA 1: B1 RNA 1
RNA 2: B2 RNA 2 with A36C, U46C, A48C, C50U
B26: target 1 C2U,C22A (mixed)
RNA 1: B1 RNA 1
RNA 2: B2 RNA 2 with C30A, U46C, A48C, C50U
B27: target 1 insA 3' of 15,insG 3' of 7 (mixed)
RNA 1: B1 RNA 1
RNA 2: B7 RNA 2 with U34A, A35G, G36A, A37G, G38A
B28: target 1 insG 3' of 7,insA 3' of 4 (mixed)
RNA 1: B1 RNA 1
RNA 2: B1 RNA 2 with G45C, C48G, G49C, C50A
B29: target 1 G12A,C22U (mixed)
RNA 1: B1 RNA 1
RNA 2: B2 RNA 2 with C30U, G40A, U46C, A48C
B30: target 1 insG 3' of 9,insG 3' of 2 (mixed)
RNA 1: B1 RNA 1
RNA 2: B1 RNA 2 with U44G, G45U, G46C, C48G, G49C, C50U, U51C, C52G
B31: target 1 insU 3' of 15,insG 3' of 9 (mixed)
RNA 1: B1 RNA 1
RNA 2: B1 RNA 2 with A38U, G39A, U41G, A43U, U44A, G46U

As a reminder, the Kd is the free concentration of one partner at which half of the binding sites on the other are occupied at equilibrium, for simple one-to-one binding.

The series has as its target T1, EsCas13d, nuclease-dead. The series is described as follows: crRNA (strand 1, pre-loaded); Mg2+; 40 mM Tris-HCl pH 7.5, 150 mM NaCl, 6 mM MgCl2, 1 mM DTT, 0.1% Tween-20, 0.2 mg/ml BSA; 25 C; 10 min per concentration, then washed. The conditions noted are these: tags: His6-TwinStrep-SUMO cleaved; N-terminal SNAP kept (SNAP-Surface 488); label: 3' end held by stalled T7 RNA polymerase.
As to B1, the Kd was 45.3 ± 3.2 nM.

The molecule B2 gave a dissociation constant Kd of 4.16 ± 0.27 nM.

Molecule B3 yielded a Kd of 8.7 ± 0.7 nM.

Molecule B4 returned an equilibrium dissociation constant (Kd) of 9.41 ± 0.34 nM.

B5 showed a Kd of 57 ± 15 nM. This Kd lies about 6.1-fold higher than the previous one.

In turn, B6 returned a dissociation constant Kd of 13 ± 0.9 nM.

In turn, B7 showed a Kd of 11.8 ± 0.6 nM.

B8 returned a Kd of 9 ± 0.6 nM.

On to B9, for which the Kd turned out to be 70 ± 9 nM. Compared with the last molecule, the Kd is about 7.8-fold higher.

For the molecule B10, the affinity, expressed as Kd, was 71 ± 10 nM.

The molecule B11 showed a Kd of 14.4 ± 1.2 nM.

B12: the Kd came out at 12.1 ± 1.1 nM.

In turn, B13 showed a Kd of 21.3 ± 1.9 nM.

With B14, the Kd was 7.29 ± 0.23 nM.

In the case of B15, the affinity, expressed as Kd, was 54 ± 6 nM.

The molecule B16 returned an equilibrium dissociation constant (Kd) of 83 ± 27 nM.

In turn, B17 registered a Kd of 56 ± 9 nM.

As to B18, the affinity, expressed as Kd, was 40 ± 5 nM. This Kd and that of the molecule before are within 1.5-fold of each other.

B19 displayed an equilibrium dissociation constant (Kd) of 9.4 ± 0.6 nM.

On to B20, for which binding was characterised by a dissociation constant (Kd) of 13.5 ± 1.3 nM.

Consider B21, for which the Kd amounted to 6.5 ± 0.5 nM.

In turn, B22 yielded a Kd of 34.4 ± 2.2 nM. Compared with the last molecule, the Kd is about 5.3-fold higher.

B23 returned a Kd of 3.1 ± 0.5 nM.

In turn, B24 had a Kd of 13.9 ± 0.8 nM. This Kd lies about 4.5-fold higher than the previous one.

In turn, B25 came in with a Kd of 56 ± 4 nM.

Consider B26, for which the Kd turned out to be 16.2 ± 1.2 nM.

For the molecule B27, the Kd stood at 6.15 ± 0.19 nM.

B28 yielded a Kd of 5.49 ± 0.24 nM. This Kd and that of the molecule before are within 1.5-fold of each other.

The molecule B29 displayed a Kd of 13 ± 1.1 nM.

B30 came in with a Kd of 17.2 ± 1 nM.

As to B31, binding was characterised by a dissociation constant (Kd) of 13 ± 0.6 nM.
